Results: patent publication EP3085709A1 (Genor Biopharma Co., Ltd, dated 2016)
One block for each molecule: values may come before it.

B1: recombinant human RANKL (soluble, Gly136-Asp317, N-terminal 10 His, expressed in CHO cells) (ligand)
chain: HHHHHHHHHHGSQHIRAEKAMVDGSWLDLAKRSKLEAQPFAHLTINATDIPSGSHKVSLSSWYHDRGWAKISNMTFSNGKLIVNQDGFYYLYANICFRHHETSGDLATEYLQLMVYVTKTSIKIPSSHTLMKGGSTKYWSGNSEFHFYSINVGGFFKLRSGEEISIEVSNPSLLDPDQDATYFGAFKVRDID

Legend:
[1] = target: RANK receptor on RAW264.7 cells (mouse (RAW264.7 cells)) (UniProt O35305); assay: cell-based or functional assay
[2] = target: commercial hRANKL standard (R & D Systems) (human) (UniProt O14788); assay: ELISA, commercial hRANKL standard coated 1 µg/ml, RANK-Fc titrated
[3] = target: T1, recombinant human RANKL (soluble, Gly136-Asp317, N-terminal 10 His, expressed in CHO cells) (human) (UniProt O14788); assay: ELISA, recombinant human RANKL coated 1 µg/ml, RANK-Fc titrated
T1 sequence: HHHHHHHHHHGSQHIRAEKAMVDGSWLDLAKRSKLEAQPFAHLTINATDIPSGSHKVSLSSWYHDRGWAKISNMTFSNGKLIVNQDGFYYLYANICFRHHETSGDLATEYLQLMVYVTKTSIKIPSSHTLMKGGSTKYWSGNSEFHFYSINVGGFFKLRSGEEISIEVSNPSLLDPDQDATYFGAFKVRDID

[4] = target: T2, RANK receptor on RAW264.7 cells (mouse (RAW264.7 cells), UniProt O35305 31-625); assay: cell-based or functional assay
T2 sequence (looked up): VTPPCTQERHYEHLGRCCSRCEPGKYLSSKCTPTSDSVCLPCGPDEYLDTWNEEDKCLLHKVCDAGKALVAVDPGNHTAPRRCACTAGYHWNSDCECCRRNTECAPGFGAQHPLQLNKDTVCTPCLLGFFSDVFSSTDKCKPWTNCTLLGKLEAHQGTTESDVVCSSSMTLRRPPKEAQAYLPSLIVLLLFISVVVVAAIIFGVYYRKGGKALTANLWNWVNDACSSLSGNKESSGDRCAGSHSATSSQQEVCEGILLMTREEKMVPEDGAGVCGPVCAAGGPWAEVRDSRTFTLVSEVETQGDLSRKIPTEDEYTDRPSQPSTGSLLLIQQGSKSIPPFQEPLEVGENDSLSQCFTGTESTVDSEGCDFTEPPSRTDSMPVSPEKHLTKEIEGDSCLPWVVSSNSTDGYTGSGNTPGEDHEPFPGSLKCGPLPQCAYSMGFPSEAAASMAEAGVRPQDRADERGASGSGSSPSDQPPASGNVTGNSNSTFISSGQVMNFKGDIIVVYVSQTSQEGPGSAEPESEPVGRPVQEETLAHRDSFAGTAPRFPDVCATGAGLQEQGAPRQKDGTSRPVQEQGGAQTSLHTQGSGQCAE

[5] = target: B1; assay: cell-based or functional assay
[6] = target: B1; assay: competitive ELISA, RANK-Fc coated, antibody pre-incubated with 0.25 µg/ml hRANKL; Plate#02
[7] = target: B1; assay: ELISA, hRANKL coated 1 µg/ml; concentration at 50% Bmax; Plate#02
[8] = target: B1; assay: cell-based or functional assay; remark: listed apart in the source
[9] = target: B1; assay: ELISA, hRANKL coated 1 µg/ml; concentration at 50% Bmax; Plate#03
[10] = target: B1; assay: ELISA, hRANKL coated, method of Example 17; antibody from CHO-S cells
[11] = target: B1; assay: competitive ELISA, RANK-Fc coated, method of Example 18; antibody from CHO-S cells
[12] = target: B1; assay: competitive ELISA, RANK-Fc coated, antibody pre-incubated with 0.25 µg/ml hRANKL; third plate (printed Plate#02)
[13] = target: B1; assay: competitive ELISA, RANK-Fc coated, antibody pre-incubated with 0.25 µg/ml hRANKL; Plate#01
[14] = target: B1; assay: ELISA, hRANKL coated 1 µg/ml; concentration at 50% Bmax; Plate#01
[15] = target: T1, recombinant human RANKL (soluble, Gly136-Asp317, N-terminal 10 His, expressed in CHO cells) (human); assay: ELISA, hRANKL coated 1 µg/ml, scFv supernatant, anti-c-myc detection

- EC50 of inducing RAW264.7 cells to differentiate into osteoclasts (TRAP activity, pNPP) [1]: 35.7 ng/ml
Molecule: commercial hRANKL standard (R & D Systems) (from UniProt O14788 140-317) (ligand)

- EC50 [2]: 0.0056 µg/mL
- EC50 [3]: 0.0109 µg/mL
Molecule: RANK-Fc (R & D Systems) (Fc fusion)

- IC50 for inhibiting cell differentiation of RAW264.7 [8]: 0.257 µg/mL
- EC50 [10]: 0.00356 µg/mL
- IC50 [11]: 0.25 µg/mL
B6: G15 (antibody, human IgG2, kappa, V domains shown)
VH: QVQLVQSGAEVKKPGASVKVSCKASGYTFTTYWLQWVRQAPGQGLEWMGAIYPGPGNTKYTQKFKDRVTITADESTSTAYMELSSLRSEDTAVYYCARRGSRRGIAYWGQGTLVTVSA
VL: NIVLTQSPASLSVSLGQRATISCRASESVDSYGRSFMHWYQQRPGQAPRLLIYLASNLESGVPARFSGSGSRTDFTLTISSVEAEDEATYYCQQDNEDPYTFGGGTKLEIKG
notes: expressed in CHO-S cells for Embodiments 23-25

- OD450 [15]: 1.2 OD450
B8: pFL249-H16 scFv clone (scFv, not shown: small tags and cut ends)
scFv: QVQLVQSGAELKKPGASVKLSCKASGYTFTTYWLQWVRQAPGQGLEWMGAIYPGPGNTKYTQKFKDRFTITADKSKSTAYMQLNSLKSEDSAVYYCARRGSRRGIAYWGQGTLVTVSAGGGGSGGGGSGGGGSNIVLTQSPASLAVSLGQRATISCRASESVDSYGRSFMHWYQQRPGQPPTLLIYLASNLESGVPVRFSGSGSRTDFTLTIDPVEADDAATYYCQQDNEDPYTFGGGTKLEIK

- OD450 [15]: 1.2 OD450
B9: pFL249-H114 scFv clone (scFv, not shown: small tags and cut ends)
scFv: QVQLVQSGAELVQPGASVKLSCKASGYTFTTYWLQWVRQTPGQGLEWMGAIYPGPGNTKYTQKFKDRVTITADTSTSTAYMQLNSLRSEDSAVYYCARRGSRRGIAYWGQGTLVTVSAGGGGSGGGGSGGGGSNIVLTQSPASLAVSLGQRATISCRASESVDSYGRSFMHWYQQRPGQPPTLLIYLASNLESGVPVRFSGSGSRTDFTLTIDPVEADDAATYYCQQDNEDPYTFGGGTKLEIK

- OD450 [15]: 1.2 OD450
B10: pFL249-H16u scFv clone (scFv, not shown: small tags and cut ends)
scFv: QVQLVQSGAELKKPGASVKLSCKASGYTFTTYWLQWVRQAPGQGLEWMGAIYPGPGNTKYTQKFKDRFTITADTSKSTAYMQLNSLKSEDSAVYYCARRGSRRGIAYWGQGTLVTVSAGGGGSGGGGSGGGGSNIVLTQSPASLAVSLGQRATISCRASESVDSYGRSFMHWYQQRPGQPPTLLIYLASNLESGVPVRFSGSGSRTDFTLTIDPVEADDAATYYCQQDNEDPYTFGGGTKLEIK

The remaining lines, values behind:

Molecule: B1
- EC50 of inducing RAW264.7 cells to differentiate into osteoclasts (TRAP activity, pNPP) [4]: 113 ng/ml

B2: G12 (antibody, human IgG2, kappa, V domains shown)
VH: QVQLVQSGAELKKPGASVKLSCKASGYTFTTYWLQWVRQAPGQGLEWMGAIYPGPGNTKYTQKFKDRFTITADTSKSTAYMQLNSLKSEDSAVYYCARRGSRRGIAYWGQGTLVTVSA
VL: NIVLTQSPASLSVSLGQRATISCRASESVDSYGRSFMHWYQQRPGQAPKLLIYLASNLESGVPARFSGSGSRTDFTLTISSVEAEDEATYYCQQDNEDPYTFGGGTKLEIKG
notes: 293F cells
- IC50 (ng/ml) in RAW264.7 cells [5]: ~1060 ng/mL
- IC50 [6]: 0.36 µg/mL
- EC50 [7]: 0.00175 µg/mL

B3: G14 (antibody, human IgG2, kappa, V domains shown)
VH: QVQLVQSGAEVKKPGASVKVSCKASGYTFTTYWLQWVRQAPGQGLEWMGAIYPGPGNTKYTQKFKDRVTITADESTSTAYMELSSLRSEDTAVYYCARRGSRRGIAYWGQGTLVTVSA
VL: DIVMTQSPDSLAVSLGERATINCRASESVDSYGRSFMHWYQQKPGQAPRLLIYLASNLESGVPSRFSGSGSGTDFTLTINSLEAEDAATYYCQQDNEDPYTFGGGTKLEIKG
- IC50 for inhibiting cell differentiation of RAW264.7 [8]: 0.247 µg/mL
- EC50 [9]: 0.004 µg/mL
- IC50 (ng/ml) in RAW264.7 cells [5]: ~517 ng/mL
- EC50 [10]: 0.00209 µg/mL
- IC50 [11]: 0.16 µg/mL
- IC50 [12]: 0.12 µg/mL

B4: G10 (antibody, human IgG2, kappa, V domains shown)
VH: QVQLVQSGAELKKPGASVKLSCKASGYTFTTYWLQWVRQAPGQGLEWMGAIYPGPGNTKYTQKFKDRFTITADTSKSTAYMQLNSLKSEDSAVYYCARRGSRRGIAYWGQGTLVTVSA
VL: NIVLTQSPASLSVSLGQRATISCRASESVDSYGRSFMHWYQQRPGQAPRLLIYLASNLESGVPARFSGSGSRTDFTLTISSVEAEDEATYYCQQDNEDPYTFGGGTKLEIKG
notes: 293F cells
- IC50 (ng/ml) in RAW264.7 cells [5]: 695 ng/mL
- IC50 [6]: 0.4 µg/mL
- EC50 [7]: 0.00285 µg/mL

B5: G8 (antibody, human IgG2, kappa, V domains shown)
VH: QVQLVQSGAELVQPGASVKLSCKASGYTFTTYWLQWVRQTPGQGLEWMGAIYPGPGNTKYTQKFKDRVTITADTSTSTAYMQLNSLRSEDSAVYYCARRGSRRGIAYWGQGTLVTVSA
VL: NIVLTQSPASLSVSLGQRATISCRASESVDSYGRSFMHWYQQRPGQAPKLLIYLASNLESGVPARFSGSGSRTDFTLTISSVEAEDEATYYCQQDNEDPYTFGGGTKLEIKG
- IC50 for inhibiting cell differentiation of RAW264.7 [8]: 0.329 µg/mL
- IC50 (ng/ml) in RAW264.7 cells [5]: ~573 ng/mL
- IC50 [6]: 0.38 µg/mL
- EC50 [10]: 0.00405 µg/mL
- EC50 [7]: 0.00276 µg/mL
- IC50 [11]: 0.37 µg/mL

B7: G4 (antibody, human IgG2, kappa, V domains shown)
VH: QVQLVQSGAELKKPGASVKLSCKASGYTFTTYWLQWVRQAPGQGLEWMGAIYPGPGNTKYTQKFKDRFTITADKSKSTAYMQLNSLKSEDSAVYYCARRGSRRGIAYWGQGTLVTVSA
VL: NIVLTQSPASLSVSLGQRATISCRASESVDSYGRSFMHWYQQRPGQAPKLLIYLASNLESGVPARFSGSGSRTDFTLTISSVEAEDEATYYCQQDNEDPYTFGGGTKLEIKG
notes: 293F cells
- IC50 [13]: ~0.36 µg/mL
- IC50 (ng/ml) in RAW264.7 cells [5]: ~1080 ng/mL
- EC50 [14]: 0.00195 µg/mL
